From publication PMC10402096 (bioRxiv, 2023)

Assays:
[1] = target: recombinant 6His-TTLL12 (Tubulin Tyrosine Ligase-Like 12) (UniProt Q14166); experiment: pull-down
recombinant GST-Rab19 = target: T1, recombinant GST-Rab19 (UniProt A4D1S5 1-217); experiment: pull-down
T1 sequence (looked up): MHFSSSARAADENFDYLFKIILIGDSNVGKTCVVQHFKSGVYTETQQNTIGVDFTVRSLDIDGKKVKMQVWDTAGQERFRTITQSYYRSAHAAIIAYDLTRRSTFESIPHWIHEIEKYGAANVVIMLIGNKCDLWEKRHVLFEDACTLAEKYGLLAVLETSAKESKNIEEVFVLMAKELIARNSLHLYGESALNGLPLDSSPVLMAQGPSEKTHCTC

purified porcine brain tubulin (α/β-tubulin heterodimer, kept unpolymerized at 4°C) (from UniProt P02550 1-451; P02554 1-445) (complex)
fold increase in tubulin co-precipitation with Ni-beads when TTLL12 is present [1]: 3 fold

B1: recombinant 6His-TTLL12 (Tubulin Tyrosine Ligase-Like 12) (natural protein, UniProt Q14166 1-644, looked up)
chain: MEAERGPERRPAERSSPGQTPEEGAQALAEFAALHGPALRASGVPERYWGRLLHKLEHEVFDAGEVFGIMQVEEVEEEEDEAAREVRKQQPNPGNELCYKVIVTRESGLQAAHPNSIFLIDHAWTCRVEHARQQLQQVPGLLHRMANLMGIEFHGELPSTEAVALVLEEMWKFNQTYQLAHGTAEEKMPVWYIMDEFGSRIQHADVPSFATAPFFYMPQQVAYTLLWPLRDLDTGEEVTRDFAYGETDPLIRKCMLLPWAPTDMLDLSSCTPEPPAEHYQAILEENKEKLPLDINPVVHPHGHIFKVYTDVQQVASSLTHPRFTLTQSEADADILFNFSHFKDYRKLSQERPGVLLNQFPCENLLTVKDCLASIARRAGGPEGPPWLPRTFNLRTELPQFVSYFQQRERWGEDNHWICKPWNLARSLDTHVTKSLHSIIRHRESTPKVVSKYIESPVLFLREDVGKVKFDIRYIVLLRSVRPLRLFVYDVFWLRFSNRAFALNDLDDYEKHFTVMNYDPDVVLKQVHCEEFIPEFEKQYPEFPWTDVQAEIFRAFTELFQVACAKPPPLGLCDYPSSRAMYAVDLMLKWDNGPDGRRVMQPQILEVNFNPDCERACRYHPTFFNDVFSTLFLDQPGGCHVTCLV
fold increase in TTLL12 binding against the GST-only control (recombinant GST-Rab19): ~5 fold
